Results on two molecules are retold here after patent publication US7582460B2 (Wacker Chemie AG, priority 2003, dated 2009).

Numbering of substitutions follows the chain as printed. Numbers in names are those of the source.

For assay [1], the system named is 3-phosphoglycerate dehydrogenase (PGD). As to the kind of experiment: PGD enzyme activity in crude extracts (McKitrick and Pizer test). Type of assay: biochemical, Escherichia coli. The following applies: crude extract of strain expressing plasmid-encoded serA allele; backward reaction, NADH oxidation at 340 nm. From the text:
(§1) For example, the PGD activity can be determined in analogy with the method described by McKitrick and Pizer (1980, J. Bacteriol. 141:235-245). The backward reaction is used to measure the enzyme activity in an assay sample which contains phosphohydroxypyruvate and NADH/H^+. The reaction is started by adding enzyme and is monitored in a spectrophotometer by way of the decrease in extinction at 340 nm which is caused by oxidation of the NADH/H^+.
(§2) At an optical density of 1.0, serA expression was in each case induced by adding 0.4 mM […] and the culture was incubated for a further 3 hours. The cells were subsequently harvested by centrifugation, washed and resuspended in 2 ml of buffer (100 mM K-phosphate, pH 7.0; 10 mM MgCl2; 1 mM dithiothreitol). The cells were disrupted using a French press (Spectronic Instruments, Inc. Rochester, N.Y., USA) at a pressure of 18 000 psi. The crude extracts were clarified by centrifugation at 30 000 g and PGD activity was determined using the McKitrick and Pizer test (1980, J. Bacteriol. 141:235-245).

Assay [2] addresses 3-phosphoglycerate dehydrogenase (PGD). Kind of assay: Inhibition of PGD activity by L-serine, inhibitor constant Ki. The assay is classed as biochemical, Escherichia coli. As to conditions: Ki = inhibitor concentration at which activity is 50% of activity without inhibitor.
Excerpt: as §1, §2

B1: serA11: E. coli PGD variant with replacement T372Y (protein, UniProt P0A9T0 2-410, looked up, variant T372Y)
D-3-phosphoglycerate …: AKVSLEKDKIKFLLVEGVHQKALESLRAAGYTNIEFHKGALDDEQLKESIRDAHFIGLRSRTHLTEDVINAAEKLVAIGCFCIGTNQVDLDAAAKRGIPVFNAPFSNTRSVAELVIGELLLLLRGVPEANAKAHRGVWNKLAAGSFEARGKKLGIIGYGHIGTQLGILAESLGMYVYFYDIENKLPLGNATQVQHLSDLLNMSDVVSLHVPENPSTKNMMGAKEISLMKPGSLLINASRGTVVDIPALCDALASKHLAGAAIDVFPTEPATNSDPFTSPLCEFDNVLLTPHIGGSTQEAQENIGLEVAGKLIKYSDNGSTLSAVNFPEVSLPLHGGRRLMHIHENRPGVLTALNKIFAEQGVNIAAQYLQYSAQMGYVVIDIEADEDVAEKALQAMKAIPGTIRARLLY
Broadly, the Ki is the equilibrium dissociation constant of an inhibitor or competing ligand from its target. Low readings indicate higher affinity, high ones lower affinity. Molecule B1 gave an Activity in assay [1] of 0.05 units/mg. Besides, the Ki in assay [2] was 35 mM.

B2: serA219: E. coli PGD variant with replacement T372G (protein, UniProt P0A9T0 2-410, looked up, variant T372G)
D-3-phosphoglycerate …: B1 D-3-phosphoglycerate … with Y371G
For the molecule B2, the Activity in assay [1] was 0.05 units/mg. In assay [2], this molecule registered a Ki of 8 mM.
